From patent US20100172907A1 (Hoffmann-La Roche, published 2010)

Key:
human Aβ (1-40) peptide = molecular target: T1, human Aβ (1-40) peptide (human); experiment: SPR, immobilized fibers;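 note: biacore SPR using in vitro grown Aβ1-40 or Aβ1-42 fibrils immobilized on the chip with Fab analytes, KD from koff/kon fits or equilibrium isotherms based on total Fab concentration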
T1 construct: also called Aβ1-40 fibers

Aβ (1-42) peptide = molecular target: T2, Aβ (1-42) peptide (human); experiment: SPR, immobilized fibers;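 note: biacore SPR using in vitro grown Aβ1-40 or Aβ1-42 fibrils immobilized on the chip with Fab analytes, KD from koff/kon fits or equilibrium isotherms based on total Fab concentration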
T2 construct: also called Aβ1-42 fibers; Aβ4

Binder	Kd (human Aβ (1-40) peptide)	Kd (Aβ (1-42) peptide)
MS-Roche #7.2.H6 Fab (Fab, V domains shown) VH: QVQLVESGGGLVQPGGSLRLSCAASGFTFSSYAMSWVRQAPGKGLEWVSAINARGNRTYYADSVKGRFTISRDNSKNTLYLQMNSLRAEDTAVYYCARGKGNTHKPYGYVRYFDVWGQGTLVTVSS VL: DIVLTQSPATLSLSPGERATLSCRASQSVSSSYLAWYQQKPGQAPRLLIYGASSRATGVPARFSGSGSGTDFTLTISSLEPEDFATYYCQQIYSFPHTFGQGTKVEIKR	1 nM	
MS-Roche #7.12.H1 Fab (Fab, V domains shown) VH: QVQLVESGGGLVQPGGSLRLSCAASGFTFSSYGMSWVRQAPGKGLEWVSNINGNGNRKYYADSVKGRFTISRDNSKNTLYLQMNSLRAEDTAVYYCARGKGNTHKPYGYVRYFDVWGQGTLVTVSS VL: DIVLTQSPATLSLSPGERATLSCRASQYVFRRYLAWYQQKPGQAPRLLISGSSNRATGVPARFSGSGSGTDFTLTISSLEPEDFAVYYCLQLYNIPNTFGQGTKVEIKR	0.6 nM	0.8 nM
MS-Roche #7.12.L3 Fab (Fab, V domains shown) VH: QVQLVESGGGLVQPGGSLRLSCAASGFTFSSYGMSWVRQAPGKGLEWVSNISGSGSSTYYADSVKGRFTISRDNSKNTLYLQMNSLRAEDTAVYYCARGKGNTHKPYGYVRYFDVWGQGTLVTVSS VL: DIVLTQSPATLSLSPGERATLSCRASQFVRRGFLAWYQQKPGQAPRLLISGSSNRATGVPARFSGSGSGTDFTLTISSLEPEDFAVYYCLQLYNIPNTFGQGTKVEIKR	0.8 nM	0.9 nM
MS-Roche #7.12.L2 Fab (Fab, V domains shown) VH: QVQLVESGGGLVQPGGSLRLSCAASGFTFSSYGMSWVRQAPGKGLEWVSNISGSGSSTYYADSVKGRFTISRDNSKNTLYLQMNSLRAEDTAVYYCARGKGNTHKPYGYVRYFDVWGQGTLVTVSS VL: DIVLTQSPATLSLSPGERATLSCRASQRFFYKYLAWYQQKPGQAPRLLISGSSNRATGVPARFSGSGSGTDFTLTISSLEPEDFAVYYCLQLYNIPNTFGQGTKVEIKR	4 nM	5.4 nM
MS-Roche #7.12.L4 Fab (Fab, V domains shown) VH: QVQLVESGGGLVQPGGSLRLSCAASGFTFSSYGMSWVRQAPGKGLEWVSNISGSGSSTYYADSVKGRFTISRDNSKNTLYLQMNSLRAEDTAVYYCARGKGNTHKPYGYVRYFDVWGQGTLVTVSS VL: DIVLTQSPATLSLSPGERATLSCRASQRLKRSYLAWYQQKPGQAPRLLISGSSNRATGVPARFSGSGSGTDFTLTISSLEPEDFAVYYCLQLYNIPNTFGQGTKVEIKR	2 nM	0.6 nM
MS-Roche #7.2.L4 Fab (Fab, V domains shown) VH: not shown VL: DIVLTQSPATLSLSPGERATLSCRASQFIRRSYLAWYQQKPGQAPRLLIYGASSRATGVPARFSGSGSGTDFTLTISSLEPEDFATYYCQQIYSFPHTFGQGTKVEIKR	1.1 nM	1.1 nM
MS-Roche #7.3.L1 Fab (Fab, V domains shown) VH: not shown VL: DIVLTQSPATLSLSPGERATLSCRASQYLHYGYLAWYQQKPGQAPRLLIYGASSRATGVPARFSGSGSGTDFTLTISSLEPEDFAVYYCHQVYSHPFTFGQGTKVEIKR	4.5 nM	6 nM
MS-Roche #7.2.H8 Fab (Fab, V domains shown) VH: QVQLVESGGGLVQPGGSLRLSCAASGFTFSSYAMSWVRQAPGKGLEWVSAINASGHKTYYADSVKGRFTISRDNSKNTLYLQMNSLRAEDTAVYYCARGKGNTHKPYGYVRYFDVWGQGTLVTVSS VL: DIVLTQSPATLSLSPGERATLSCRASQSVSSSYLAWYQQKPGQAPRLLIYGASSRATGVPARFSGSGSGTDFTLTISSLEPEDFATYYCQQIYSFPHTFGQGTKVEIKR	1.5 nM	2.1 nM
MS-Roche #7.2.L2 Fab (Fab, V domains shown) VH: not shown VL: DIVLTQSPATLSLSPGERATLSCRASQYISFRYLAWYQQKPGQAPRLLIYGASSRATGVPARFSGSGSGTDFTLTISSLEPEDFATYYCQQIYSFPHTFGQGTKVEIKR	5.6 nM	4 nM
MS-Roche #7.9.H7 Fab (Fab, V domains shown, also called MSR 7.9H7) VH: QVQLVESGGGLVQPGGSLRLSCAASGFTFSSYAMSWVRQAPGKGLEWVSAINASGTRTYYADSVKGRFTISRDNSKNTLYLQMNSLRAEDTAVYYCARGKGNTHKPYGYVRYFDVWGQGTLVTVSS VL: DIVLTQSPATLSLSPGERATLSCRASQSVSSSYLAWYQQKPGQAPRLLIYGASSRATGVPARFSGSGSGTDFTLTISSLEPEDFATYYCLQIYNMPITFGQGTKVEIKR	1 nM	0.9 nM
MS-Roche #7.9.H5 Fab (Fab, V domains shown, assembled) VH: QVQLVESGGGLVQPGGSLRLSCAASGFTFSSYAMSWVRQAPGKGLEWVSAINHAGNKKYYADSVKGRFTISRDNSKNTLYLQMNSLRAEDTAVYYCARGKGNTHKPYGYVRYFDVWGQGTLVTVSS VL: DIVLTQSPATLSLSPGERATLSCRASQSVSSSYLAWYQQKPGQAPRLLIYGASSRATGVPARFSGSGSGTDFTLTISSLEPEDFATYYCLQIYNMPITFGQGTKVEIKR	1.7 nM	1.8 nM
MS-Roche #7.9.H9 Fab (Fab, V domains shown, assembled) VH: QVQLVESGGGLVQPGGSLRLSCAASGFTFSSYAMSWVRQAPGKGLEWVSAINGKGNKKYYADSVKGRFTISRDNSKNTLYLQMNSLRAEDTAVYYCARGKGNTHKPYGYVRYFDVWGQGTLVTVSS VL: DIVLTQSPATLSLSPGERATLSCRASQSVSSSYLAWYQQKPGQAPRLLIYGASSRATGVPARFSGSGSGTDFTLTISSLEPEDFATYYCLQIYNMPITFGQGTKVEIKR	0.9 nM	0.9 nM
MS-Roche #7.9.L1 Fab (Fab, V domains shown) VH: not shown VL: DIVLTQSPATLSLSPGERATLSCRASQRLSPRYLAWYQQKPGQAPRLLIYGASSRATGVPARFSGSGSGTDFTLTISSLEPEDFATYYCLQIYNMPITFGQGTKVEIKR	1 nM	1.1 nM
MS-Roche #7.9.L2 Fab (Fab, V domains shown) VH: not shown VL: DIVLTQSPATLSLSPGERATLSCRASQYLHKRYLAWYQQKPGQAPRLLIYGASSRATGVPARFSGSGSGTDFTLTISSLEPEDFATYYCLQIYNMPITFGQGTKVEIKR	1 nM	0.5 nM
MS-Roche #7.11.H5 Fab (Fab, V domains shown) VH: QVQLVESGGGLVQPGGSLRLSCAASGFTFSSYAMSWVRQAPGKGLEWVSAINAHGQRTYYADSVKGRFTISRDNSKNTLYLQMNSLRAEDTAVYYCARGKGNTHKPYGYVRYFDVWGQGTLVTVSS VL: DIVLTQSPATLSLSPGERATLSCRASQSVSSSYLAWYQQKPGQAPRLLIYGASSRATGVPARFSGSGSGTDFTLTISSLEPEDFATYYCQQVYSPPHTFGQGTKVEIKR	3.4 nM	1.7 nM
MS-Roche #7.9.H8 Fab (Fab, V domains shown, assembled) VH: QVQLVESGGGLVQPGGSLRLSCAASGFTFSSYAMSWVRQAPGKGLEWVSAINASGSKIYYADSVKGRFTISRDNSKNTLYLQMNSLRAEDTAVYYCARGKGNTHKPYGYVRYFDVWGQGTLVTVSS VL: DIVLTQSPATLSLSPGERATLSCRASQSVSSSYLAWYQQKPGQAPRLLIYGASSRATGVPARFSGSGSGTDFTLTISSLEPEDFATYYCLQIYNMPITFGQGTKVEIKR	0.8 nM	0.7 nM
MS-Roche #7.11.H4 Fab (Fab, V domains shown) VH: QVQLVESGGGLVQPGGSLRLSCAASGFTFSSYAMSWVRQAPGKGLEWVSAINANGYKTYYADSVKGRFTISRDNSKNTLYLQMNSLRAEDTAVYYCARGKGNTHKPYGYVRYFDVWGQGTLVTVSS VL: DIVLTQSPATLSLSPGERATLSCRASQSVSSSYLAWYQQKPGQAPRLLIYGASSRATGVPARFSGSGSGTDFTLTISSLEPEDFATYYCQQVYSPPHTFGQGTKVEIKR	1 nM	1.7 nM
MS-Roche #7.11.H3 Fab (Fab, V domains shown) VH: QVQLVESGGGLVQPGGSLRLSCAASGFTFSSYAMSWVRQAPGKGLEWVSGINANGNRTYYADSVKGRFTISRDNSKNTLYLQMNSLRAEDTAVYYCARGKGNTHKPYGYVRYFDVWGQGTLVTVSS VL: DIVLTQSPATLSLSPGERATLSCRASQSVSSSYLAWYQQKPGQAPRLLIYGASSRATGVPARFSGSGSGTDFTLTISSLEPEDFATYYCQQVYSPPHTFGQGTKVEIKR	6.6 nM	4.4 nM
MS-Roche #7.2.H7 Fab (Fab, V domains shown) VH: QVQLVESGGGLVQPGGSLRLSCAASGFTFSSYAMSWVRQAPGKGLEWVSAINSRGSDTHYADSVKGRFTISRDNSKNTLYLQMNSLRAEDTAVYYCARGKGNTHKPYGYVRYFDVWGQGTLVTVSS VL: DIVLTQSPATLSLSPGERATLSCRASQSVSSSYLAWYQQKPGQAPRLLIYGASSRATGVPARFSGSGSGTDFTLTISSLEPEDFATYYCQQIYSFPHTFGQGTKVEIKR	15.5 nM	8.1 nM
MS-Roche #7.3.H1 Fab (Fab, V domains shown) VH: QVQLVESGGGLVQPGGSLRLSCAASGFTFSSYAMSWVRQAPGKGLEWVSAISAISNKTYYADSVKGRFTISRDNSKNTLYLQMNSLRAEDTAVYYCARGKGNTHKPYGYVRYFDVWGQGTLVTVSS VL: not shown	8 nM	11.2 nM
MS-Roche #7.11.L1 Fab (Fab, V domains shown) VH: not shown VL: DIVLTQSPATLSLSPGERATLSCRASQRILRIYLAWYQQKPGQAPRLLIYGASSRATGVPARFSGSGSGTDFTLTISSLEPEDFATYYCQQVYSPPHTFGQGTKVEIKR	1.1 nM	1.2 nM
MS-Roche #3.4.H13 Fab (Fab, V domains shown) VH: QVQLVESGGGLVQPGGSLRLSCAASGFTFSSYAMSWVRQAPGKGLEWVSAISEQGRNIYYADSVKGRFTISRDNSKNTLYLQMNSLRAEDTAVYYCARLTHYARYYRYFDVWGQGTLVTVSS VL: not shown	32.3 nM	18.8 nM
MS-Roche #3.4.H14 Fab (Fab, V domains shown) VH: QVQLVESGGGLVQPGGSLRLSCAASGFTFSSYAMSWVRQAPGKGLEWVSAISESGQYKYYADSVKGRFTISRDNSKNTLYLQMNSLRAEDTAVYYCARLTHYARYYRYFDVWGQGTLVTVSS VL: not shown	13.3 nM	16.8 nM
MS-Roche #8.2.H4 Fab (Fab, V domains shown, H-CDR2 printed with 16 residues) VH: QVQLVESGGGLVQPGGSLRLSCAASGFTFSSYAMSWVRQAPGKGLEWVSATSVKGKTYYADSVKGRFTISRDNSKNTLYLQMNSLRAEDTAVYYCARLLSRGYNGYYHKFDVWGQGTLVTVSS VL: not shown	12.1 nM	11.9 nM
